The supplement of paper PMC10567573

B1: ESRRA (parent)
chain: LGVAQRSLPLQDELAFAEDLVLDE

Variants of: B1
Test: protein stability index of a GFP-peptide fusion (GPS, HEK-293T) (PSI 1-6); higher = more stable
Conditions: c terminus: a fixed tail appended
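Also: lentivirally expressed fusions sorted by FACS into six bins by GFP to DsRed ratio, PSI derived from sequencing read proportions per bin multiplied by bin number.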

Protein stability index of substitutions, site by site:
P9: M 3.53; D 3.17; I 2.85; T 4.04; H 3.69; S 3.49; L 3.89; Q 4.66; A 4.37; V 4.05; K 3.07; F 3.54; E 3.45; Y 3.66; W 3.21; G 2.64; R 3.95; N 4.18; C 4.38
A15: W 3.22; I 4.41; P 5.28; E 4.74; C 3.93; V 4.41; Q 3.65; D 4.77; F 4.42; S 3.68; R 1.82; L 3.81; Y 4.29; M 3.49; H 4.39; T 3.26; G 4.74; K 2.3; N 3.85
V3: Y 2.16; K 2.39; T 2.92; G 3.15; D 3.69; W 2.82; A 2.92; N 3.1; H 2.76; R 2.58; M 2.12; I 2.21; F 2.31; P 2.73; S 2.64; L 2.61; Q 2.84; C 2.86; E 4.36
A17: N 5.35; T 3.8; F 4.19; R 4.83; D 4.99; K 5.25; I 3.96; V 4.77; P 5.19; W 2.02; L 4.3; G 4.76; H 4.95; S 4.49; M 4.88; Q 5.4; E 5.09; C 4.9; Y 3.39
G2: W 1.79; I 1.89; C 2.69; A 3.14; F 1.87; V 2.34; D 3.02; T 2.91; S 2.63; Y 1.89; E 3.17; H 2.78; N 3.08; Q 2.98; K 1.98; L 2.21; R 1.93; M 2.36; P 3.92
L14: V 4.92; F 5.55; Q 5.27; H 5.43; Y 4.81; R 5.33; C 5.43; N 5.42; P 5.38; D 5.68; K 5.15; A 5.24; G 5.46; E 5.5; S 5.66; T 5.5; I 5.15; M 2.13; W 4.37
S7: Q 3.18; R 2.52; P 3.14; L 2.58; A 3.38; G 2.79; N 2.46; I 2.98; M 2.84; H 2.29; Y 2.37; T 3.34; F 2.32; K 3.13; W 1.78; V 2.94; D 3.25; E 2.57; C 2.4
L1: H 2.98; C 2.57; F 2.81; S 3.75; Y 2.79; R 2.18; I 2.2; M 2.63; P 3.63; Q 3.21; N 2.58; G 3.19; E 4.04; A 2.99; T 3.5; D 4.27; W 1.74; K 2.34; V 2.8
Q11: T 4.57; Y 3.12; W 2.71; C 3.94; S 4.37; G 3.38; V 3.14; P 4.66; F 4; M 3.65; D 4.92; H 3.21; R 2.94; N 4.12; K 2; E 4.87; L 3.3; I 3.35; A 3.11
D12: T 1.86; Y 1.8; I 1.74; N 3.19; H 2.17; W 2.04; R 1.95; P 4.59; C 1.92; A 3.13; S 2.01; K 2.98; E 2.3; M 2.37; F 1.46; V 2.22; L 1.88; G 3.59; Q 1.7
Q5: K 2.39; N 2.63; S 4.29; T 2.39; D 2.77; A 2.51; P 3.39; F 1.87; C 1.76; L 2.07; E 3.16; H 2.71; G 2.26; Y 1.97; W 2.07; M 2.91; I 2.17; R 1.74; V 2.19
E13: M 3.16; P 4.71; N 5.15; Q 2.99; K 4.95; I 2.42; S 4.45; Y 3.5; D 2.5; V 2.64; H 4.44; A 1.75; T 3.92; F 3.12; R 4.62; L 2.5; W 3.24; G 4.81; C 3.38
A4: R 1.86; N 2.94; H 2.21; C 2.02; K 2.58; G 2.41; F 2.23; W 2.3; Y 2.1; I 1.59; P 3.1; D 2.84; V 2.39; Q 3.33; L 2.42; S 2.81; M 2.58; E 3.45; T 2.43
R6: I 2.37; Y 2.16; M 2.35; G 2.56; W 2.17; Q 3.81; L 2.34; C 1.84; D 4.23; F 2.26; T 3.23; N 2.64; A 3.14; H 2.55; P 3.62; S 2.98; E 3.27; K 2.92; V 3.09
L10: D 5.42; F 4.97; Q 5.45; K 5.21; G 5.43; W 4.84; P 4.33; R 5.44; H 5.26; C 5.41; A 5.58; Y 5.12; T 5.47; S 5.19; V 4.64; N 5.12; E 4.36; I 4.7; M 3.54
L8: F 2.33; D 4.91; M 3.25; P 3.71; K 4.38; W 3.63; S 2.83; Y 1.86; A 3.17; I 3.03; T 3.24; R 2.02; V 3.53; N 2.91; C 3.2; H 2.88; Q 3.72; G 3.74; E 5
F16: P 5.83; M 2.81; W 2.45; C 3.86; K 3.43; D 3.47; G 4.64; T 5.04; Y 2.93; L 2.96; H 3.46; N 3.63; A 3.16; E 3.61; R 3.03; V 4.09; S 4.66; Q 2.68; I 2.34
E18: K 4.58; H 4.6; M 3.84; A 4.25; I 2.56; L 2.89; F 3.3; C 4.09; D 5.17; G 5; N 4.9
